Assay results taken from patent CN115536746A (NANJING SANHOME PHARMACEUTICAL CO LTD, dated 2022).

Biological target: T1, cCRTAM-His (猴源CRTAM蛋白胞外区 + His标签) (猴源 (食蟹猴, cynomolgus monkey))
T1 construct: also called cCRTAM-His蛋白; 食蟹猴CRTAM
T1 chain: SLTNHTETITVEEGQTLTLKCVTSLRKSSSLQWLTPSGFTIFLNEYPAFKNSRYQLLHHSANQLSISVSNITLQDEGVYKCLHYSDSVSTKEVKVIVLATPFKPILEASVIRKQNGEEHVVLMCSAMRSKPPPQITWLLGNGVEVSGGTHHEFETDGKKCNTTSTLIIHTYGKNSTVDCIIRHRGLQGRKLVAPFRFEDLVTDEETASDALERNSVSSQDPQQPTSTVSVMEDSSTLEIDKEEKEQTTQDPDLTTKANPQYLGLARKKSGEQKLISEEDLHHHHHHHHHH
Assay: ELISA, cCRTAM-His coated at 2 μg/mL

B1: HuC124-42 (antibody, V domains shown)
VH: QVQLVQSGAEVKKPGSSVKVSCKASGYSFSNYWIEWVRQAPGQGLEWIGEILPGVPTIYYNAKFKDRVTFTADKSTSTAYMELSSLRSEDTAVYYCSRDPWFAYWGQGTLVTVSA
VL: EIVLTQSPATLSVSPGERATFSCRASQSIGTSLHWFQQKPGQAPRLLIKYASQSISGIPARFSGSGSGTEFTLTISSVQSEDFAVYYCQQSNNWPFTFGGGTKLEIK
notes: also called HuC124-42-biotin; 抗CRTAM人源化抗体HuC124-42
- EC50: 4.78 ng/mL

B2: HuC94-31 (antibody, V domains shown)
VH: EVQLLESGGGLVQPGGSLRLSCAASGFTFSTSAMSWVRQAPGKGLEWVATISSGGDYTYYSDNVKGRFTISRDNSKSTLYLQMNSLRAEDTAVYYCTLGYDEADYWGQGSLLTVSS
VL: DIQMTQSPSSLSASVGDRVTITCRASQDISNYLNWYQQKPGKAPKLLIYYTSRLHSGVPSRFSGSGSGTDYTFTISSLQPEDIATYYCQQGDTFPWTFGGGTKLEIK
notes: also called HuC94-31-biotin; 抗CRTAM人源化抗体HuC94-31
- EC50: 4.68 ng/mL

B3: HuC110-34 (antibody, V domains shown)
VH: QVQLVQSGAEVKKPGASVKVSCKASGYTFTNNDINWVKQAPGQRLEWIGWIYPRDGSTQYNEKFRGRATITVDTSASTAYMELSSLRSEDTAVYFCARGLVDYWGQGTLVTVSS
VL: DVVMTQSPDSLAVSLGERATINCRSSQSLVHSNKNTYLHWYLQKPGQPPKLLIYKVSNRFSGVPDRFSGSGSGTDFTLTISSLQAEDVAVYYCSQSTRVPWTFGGGTKLEIK
notes: also called HuC110-34-biotin; 抗CRTAM人源化抗体HuC110-34
- EC50: 8.17 ng/mL
